Assay results: article doi:10.1101/2025.07.21.665964

Target: Avi-GST-CMG2^ABD
Experiment: BLI

purified actin (polymerized F-actin) (from UniProt P60709 1-375) (natural protein)
Kd: 10 nM
